In patent US20110008774A1 (CORNELL RESEARCH FOUNDATION, published 2011):

Biological target: AMEF β-gal (normally inactive β-galactosidase variant, AMEF 959) (E. coli)
Assay: cell-based or functional assay

| Binder | AMEF β-gal activation in vivo (whole cell X-gal hydrolysis, absorbance at 620 nm) [fold over wt scFv13] |
| --- | --- |
| scFv13 variant S20 (scFv) scFv: MADYKDDDDKGGSAEVQLVESGGGLVKPGGSLRLSCAASGFTFSNNSMNWVRQAPGKGLEWVSSISSSSSYIYYADFVKGRFTISRDNAKNSLYLQMNSLRAEDTAVYYCARSSTTIFGGGMDVWGRGTLVTVSSGGGGSGEGGSGGGGSQSVLTQPASVSGSPGQSITISCAGTSSDVGGYNYVSWYQQHPGKAPKLMIYEDSKRPSGVSNRFSGSKSGNTASLTISGLQAEDEADYYCSSYTTRSTRVFGGGTKLAVLGAAAEQKLISEGDLNGAAELHHHHHH | ~2 |
| scFv13 variant S23 (scFv) scFv: MADYKDDDDKGGSAEVQLVESGGGLVKPGGSLRLSCAASGFTFSNYSMNWVRQAPGKGLEWISSISSSSSYIYYADFVKGRFTISRDNVKNSLYLQMNSLRAEDTAVYYCARSSITIFGGGMDVWGRGTLVTVSSGGGGSGGGGSGGGGSQSVLTQPASVSGSPGQSITISCAGTSSDVGGYNYVSWYQQHLGKAPKLMIYEGSKRSSGVSNRFSGSKSGNTASLTISGLQAEDEADYYCSSYTTRSTRVFGGGTKLAVLGAAAEQKLISEEDLNGAAELHHHHHH | ~2 |
